B1: S2X333 IgG1 (antibody, V domains shown)
VH: VQLVESGGGVVQPGRSLRLSCAASGFTFSNYGMHWVRQAPGKGLEWVAVIWYDGSNKFYADSVKGRFTISRDNSKNSLYLQMNSLRAEDTAVYFCARAFPDSSSWSGFTIDYWGQGTLVTV
VL: YELTQPPSVSTARITCGGNNIERKSVHWCQQKPGQAPALVVYDDSDRPSGIPERFSGSNSGNTATLTISRVEAGDEADYYCQVWDSGSDQVIFGGGTKLT
B2: S2L28 IgG1 (antibody, V domains shown)
VH: EVQLVESGGGLVNPGGSLRLSCAASGFTFSDYTIHWVRQAPGKGLEWVSSISSSSNYIYYADSVKGRFTISRDNAKNSLSLQMNSLRAEDTAVYYCARDGNAYKWLLAENVRFDYWGQGTLVTVSS
VL: VTQPASVSGSPGQSITISCTGTSSDVGGYNYVSWYQQHPGKAPKLMIYDVSDRPSGVSNRFSGSKSGNTASLTISGLQAEDEADYYCSSYTSSSTPNWVFGGGTKLT
B3: S2M28 IgG1 (antibody, V domains shown)
VH: EVQLVESGGGVVQPGRSLRLSCAASGFTFSSYGMHWVRQAPGKGLEWVTVIWYDGSNRYYADSVKGRFTISRDNSKNTLYLQMDSLRAEDTAVYYCARAVAGEWYFDYWGQGTLVTVSS
VL: SYELTQPPSVSVSPGQTARITCSGDALAKHYAYWYRQKPGQAPVLVIYKDSERPSGIPERFSGSSSGTTVTLTISGVQAEDEADYYCQSADSIGSSWVFGGGTKLTVL

biological target: full-length wild-type SARS-CoV-2 S (Severe acute respiratory syndrome …, UniProt P0DTC2); assay: flow cytometry on cells

Q: Does B1 bind?
A: Result: binds

Q: Does B2 bind?
A: Result: binds

Q: Does B3 bind?
A: Result: binds
